Measurements reported in the supplement of paper PMC10126150.
± gives the standard deviation of the averaged measurements.

Tested on: ATP
Experiment: switch fluorescence ratio, 500 uM ATP over buffer (Cy3 cluster intensity, sum of 5 cycles each) (fold (ratio)); higher = stronger signal-on switching upon ATP binding; sequences stand for … in TCGTCGGCAGCGTCAGATGTGTATAAGAGACAGTTTTTTTTTTTTTTTTTTTTTTTTT…TC
Conditions: aptamer strand: ATP DNA aptamer (quencher-CACCTGGGGGAGTATTGCGGAGGAAGG + anchor), 100 nM annealed; ATP concentration: 500 uM
How it was run: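 The quencher-labelled ATP aptamer, at 100 nM, was annealed to Cy3-labelled switching-strand clusters on a modified Illumina MiSeq flow-cell. The clusters were imaged in selection buffer, then after 15 min with 500 uM ATP at 22 °C, and this buffer/ATP cycle ran five times with NaOH stripping and re-annealing between runs. Per-cluster fluorescence ratios, summed target-cycle over summed buffer-cycle Cy3 intensity, were averaged per switch-domain sequence. Clusters outside 100-1000 RFU were excluded.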
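Further: ATP exposure 15 min at 22 °C before imaging.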

Sequence | switch fluorescence ratio
TTCGCGGGGG | 0.979 ± 0.011
CGCTGTGGAG | 1.01 ± 0.012
TTGTGTTTCG | 0.967 ± 0.028
AATTGTGGGG | 0.983 ± 0.057
CTGCTAGTTT | 0.983 ± 0.016
ACGGGAGTGG | 0.998 ± 0.011
AATAAACAGA | 1.02 ± 0.017
ATGTTAAATT | 0.976 ± 0.014
CGGGGGCTAG | 0.996 ± 0.012
TGTTTGAGGG | 1.02 ± 0.024
TTCTGCTTTC | 1.11 ± 0.03
ATATTGTAGT | 0.9969 ± 0.0089
GGGTATGTTT | 0.981 ± 0.03
AGGGAGCCGG | 0.965 ± 0.03
ATAATTTGCG | 0.9814 ± 0.0073
GAATATATAG | 0.965 ± 0.011
TAAGGATGTA | 1 ± 0.033
GCTGGGGTGC | 1 ± 0.09
TATATGAATA | 1.006 ± 0.0023
TTCCTATCGT | 1.046 ± 0.0022
CCGTCAAGGA | 1.94 ± 1.2
TGGCAGGTTT | 1.015 ± 0.01
ACTAATTATT | 1.03 ± 0.021
GCAATGGCAT | 0.987 ± 0.03
TTTATTCTG | 0.9873 ± 0.0064

Sequence | switch fluorescence ratio
GGAAGGAGTG | 0.987 ± 0.036
GGGAGGGATA | 0.995 ± 0.02
TGATATTTGC | 0.969 ± 0.033
TTAGGGGAGG | 0.9925 ± 0.0098
CTTTTAACGA | 1.01 ± 0.03
CGGGCTAGGG | 0.9979 ± 0.0049
AGAACCTTCG | 3.17 ± 0.38
TTTTATGGAG | 0.998 ± 0.013
GATGCCGGGG | 1.05 ± 0.095
AAGACGAATT | 1.01 ± 0.058
TTGATAGATG | 0.975 ± 0.028
TATGTAAACA | 1 ± 0.025
TGGGATGCGT | 0.988 ± 0.015
GGAGGCAGTT | 0.9738 ± 0.006
GCATGTATGG | 0.983 ± 0.044
AGAAAGGGCC | 0.966 ± 0.055
ATTGGTTAAA | 1 ± 0.026
CGGACTTTG | 0.999 ± 0.026
TTTTTGCACC | 1.04 ± 0.037
GGGGAACAGG | 1.05 ± 0.06
AGTTATAGTT | 0.997 ± 0.052
ACGATTTATC | 1.01 ± 0.016
TGGTTAAACT | 0.98 ± 0.027
TGTGAACAGT | 0.975 ± 0.044
GGTGGATGGG | 0.987 ± 0.014

Sequence | switch fluorescence ratio
ATAAGGGTAG | 1.028 ± 0.0054
GGAGATGTCA | 1.013 ± 0.0081
ATTTAGACTA | 1.01 ± 0.027
TCAAATTTTT | 0.998 ± 0.045
ATTGGGAGAG | 1.02 ± 0.035
TTCTGAGGTA | 1.01 ± 0.03
AGAAGGATTA | 1 ± 0.017
CTTGACAGGT | 1.023 ± 0.0058
TTCATTTTTG | 0.998 ± 0.044
AGATGTTTGG | 0.956 ± 0.027
CAGTGTAGTC | 1.02 ± 0.057
TAAAACCGGG | 1 ± 0.025
GTGTATGGGG | 0.968 ± 0.063
CAAAAGATGT | 1.01 ± 0.05
AGTGGTTGTG | 0.973 ± 0.0069
GGGTGCTGTT | 1.02 ± 0.036
AGTCGGGGTT | 0.979 ± 0.01
ATGGGGATTG | 0.983 ± 0.048
GAAGGGGTAA | 1.18 ± 0.3
TGGTGGCTTT | 0.996 ± 0.015
GTGGCCAACC | 1.02 ± 0.0022
TGACGAACTC | 1.32 ± 0.045
GATATCGTCT | 1.03 ± 0.028
GTTGAACCGG | 0.988 ± 0.02
CTGGGGGGCC | 1.01 ± 0.038

Sequence | switch fluorescence ratio
TTTAGATAAC | 1.02 ± 0.044
GTTTTATTCT | 1 ± 0.023
GGGTTATAGT | 1.01 ± 0.017
ACGGTGTTAC | 1.11 ± 0.027
GGGTAGGGAT | 1 ± 0.032
GATTTAGTAC | 1.01 ± 0.067
TAACGGTTAT | 1.01 ± 0.024
CTTGGGGGGG | 0.991 ± 0.02
ATCACTGGTA | 1.03 ± 0.017
TAATGGAGGT | 0.979 ± 0.038
TGTGTGTGGT | 1.006 ± 0.0062
TCACTCCTTT | 1.01 ± 0.019
GATGTGGTCT | 1.014 ± 0.0075
GAGTGTAAGT | 0.979 ± 0.01
CCTGGTAAGT | 1.04 ± 0.051
AAGGGTGTTG | 1.01 ± 0.017
CGTGCTGGTG | 1.03 ± 0.022
TACTGGAGGC | 1.02 ± 0.043
CCAGTCATCA | 0.9961 ± 0.0014
ATGTTCAGTG | 0.985 ± 0.03
TAGGGAAGGT | 1.01 ± 0.034
CCCATGTTTC | 1.02 ± 0.023
TTCGAGGGTA | 0.974 ± 0.036
CGGTAGAGTA | 0.98 ± 0.062
TGGTCTTTTC | 0.986 ± 0.02

Sequence | switch fluorescence ratio
CGGGTAATAG | 1.46 ± 0.16
CCAGTGTCGG | 0.969 ± 0.04
AGAGCATTGA | 1.013 ± 0.007
TTCATCGTTT | 0.968 ± 0.011
GGTGTCCGGG | 0.9986 ± 0.0019
ATGTACTACT | 1.07 ± 0.068
AACAGAAGAG | 1.007 ± 0.01
CTTGGGTAGG | 1.01 ± 0.035
TAATTTATCC | 1.022 ± 0.0095
CAGTCAAGGG | 1.01 ± 0.013
TGTCCGGTTT | 1.25 ± 0.36
TACCATATTT | 1.04 ± 0.021
TTTGCTGAAC | 1.065 ± 0.0086
CTTTAAGTTG | 1.03 ± 0.029
TTGAAGTAGT | 1.03 ± 0.1
TTTTTAGGAC | 0.997 ± 0.014
CGCTTTATGA | 1.07 ± 0.024
AGGGCATTAT | 1.04 ± 0.047
ATTTGAGGGT | 0.986 ± 0.021
ATGGTTAAGG | 0.9812 ± 0.0085
ATCTGTAGGG | 1.023 ± 0.0075
AATGGGCACA | 1 ± 0.042
GGGTGTAGGA | 1.03 ± 0.065
GACAAAGGGC | 1.08 ± 0.027
GGTACGCG | 0.982 ± 0.027

Sequence | switch fluorescence ratio
GCTAGAATAT | 1.02 ± 0.014
ATCATTTTAG | 0.995 ± 0.01
AAAGTACTGG | 1.19 ± 0.042
AGAGTAGAGT | 0.9995 ± 0.0088
CGAGAGGAGC | 0.998 ± 0.073
AATGGAAGGC | 1.09 ± 0.07
GATTGGGTGA | 0.972 ± 0.011
TAATGACCTT | 1.16 ± 0.18
ATAGCAGATG | 0.991 ± 0.046
ATATGAAGAA | 0.968 ± 0.01
CGTTACACAA | 1.04 ± 0.035
AGGGTGACCT | 1.17 ± 0.15
TGAGGGATTC | 1 ± 0.047
GAGCATAGGG | 1.02 ± 0.013
TAATTATATT | 0.988 ± 0.023
TAGGATTCGA | 0.964 ± 0.016
GGGAACGGGT | 1 ± 0.035
TTTTTGACTT | 1.005 ± 0.0092
CTGTGTGGAG | 0.991 ± 0.013
TAAGGACATT | 1.03 ± 0.015
AATATGCAGG | 0.9657 ± 0.0034
GTCTTGGGTG | 1.02 ± 0.019
TGCAAAAGGG | 1.024 ± 0.0074
TTCCTAAAGT | 0.9622 ± 0.0039
TTTCAAAAT | 1.035 ± 0.0037

Sequence | switch fluorescence ratio
ATTAAAGCCC | 1.02 ± 0.039
ATCTTAATTG | 1.005 ± 0.0075
AAATAGGGGA | 0.989 ± 0.039
GCGGAAGGGG | 0.988 ± 0.015
TGAGAGGGGG | 1 ± 0.083
TGAGAGGGAC | 1.05 ± 0.013
GCAATTAAAG | 1.12 ± 0.14
GTATGGCTGG | 0.976 ± 0.044
ATTAGTTTTT | 0.9731 ± 0.0076
TCGAGCCATA | 1.08 ± 0.046
CGATTCTTAA | 0.996 ± 0.011
AGGTTGAAAA | 0.963 ± 0.032
TGTTTTATTG | 1.01 ± 0.016
TATGAGGATG | 1.01 ± 0.031
ATGCAGGGTT | 0.978 ± 0.053
ATATTTGCGA | 0.973 ± 0.022
GCCGACTCTG | 1.04 ± 0.048
ATGGAATGAG | 0.998 ± 0.012
GGGTTTTTAT | 0.989 ± 0.027
CCCGATGCGC | 1.42 ± 0.51
TTCCTGGCAT | 1.45 ± 0.42
AAGTCAAGTA | 0.9581 ± 0.0054
ATTGGGGCTG | 0.9677 ± 0.006
CGTGGTATCA | 0.982 ± 0.077
AGGGTATGTA | 1 ± 0.015

Sequence | switch fluorescence ratio
CGATATAAGA | 0.998 ± 0.054
ATAAAATCTA | 1.02 ± 0.061
GCGTCAGGCG | 0.971 ± 0.026
CGAGCGATGG | 1.94 ± 0.074
CATATGGTAT | 1.02 ± 0.037
AAGATTAGTC | 0.974 ± 0.041
GCTCGTTATA | 1.02 ± 0.019
TTTTAGGGGG | 1 ± 0.038
AAAGGGCTGG | 0.984 ± 0.019
GTGGTACACG | 1.01 ± 0.026
TAAATATTGG | 1.04 ± 0.034
AATAAATCGT | 0.998 ± 0.024
GGAGGGGAGC | 0.974 ± 0.056
ACACAAGGCT | 1.03 ± 0.037
ACACAGGGGG | 1.0997 ± 0.00043
TTGTGTGCAG | 0.959 ± 0.053
TTCGTTTGTC | 1 ± 0.02
CATTCGCTGA | 1.92 ± 0.19
GCATCACGTT | 1 ± 0.029
ACCGGGCGAG | 1 ± 0.042
AAGTTTAATT | 1.02 ± 0.012
TCAGTGGACG | 0.996 ± 0.072
TCTGCTTATT | 0.979 ± 0.048
GGGTTAGAGT | 0.993 ± 0.025
AGGGCCTGGG | 0.999 ± 0.04
